# Source: patent publication US20220017622A1 (Pfizer, published 2022)
# T1: human B7-H4 on cells (human, UniProt Q7Z7D3 25-282)
# T1 construct: whole, on cells; Tumour cell lines with endogenous B7-H4 or HEK293 transfected with human B7-H4
# T1 sequence (looked up): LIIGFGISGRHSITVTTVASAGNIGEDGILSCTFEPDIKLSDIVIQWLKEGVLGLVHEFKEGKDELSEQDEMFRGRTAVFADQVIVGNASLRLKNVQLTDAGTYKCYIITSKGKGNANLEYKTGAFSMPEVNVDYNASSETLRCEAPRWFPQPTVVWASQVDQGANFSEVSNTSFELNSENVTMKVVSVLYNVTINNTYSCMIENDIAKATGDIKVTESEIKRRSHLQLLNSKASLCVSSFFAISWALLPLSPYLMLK
# Assays:
# human B7-H4 on cells [1] = target: T1, human B7-H4 on cells; experiment: flow cytometry on MX-1 cells, 37 C
# human B7-H4 on cells [2] = target: T1, human B7-H4 on cells; experiment: cell-based or functional assay
# [3] = target: T2, human CD3 on primary human T cells (human, UniProt P07766 23-207; P04234 22-171); experiment: flow cytometry on primary human T cells, 37 C
# T2 construct: whole, on cells; On cells the whole CD3/TCR complex is present
# T2 sequence (P07766 23-207, chain 1 of 2): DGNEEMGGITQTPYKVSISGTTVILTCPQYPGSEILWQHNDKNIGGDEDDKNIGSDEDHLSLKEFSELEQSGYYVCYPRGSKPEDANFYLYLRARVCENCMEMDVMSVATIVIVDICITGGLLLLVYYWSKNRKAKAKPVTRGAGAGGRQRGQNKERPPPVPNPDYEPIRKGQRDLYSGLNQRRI
# T2 sequence (P04234 22-171, chain 2 of 2): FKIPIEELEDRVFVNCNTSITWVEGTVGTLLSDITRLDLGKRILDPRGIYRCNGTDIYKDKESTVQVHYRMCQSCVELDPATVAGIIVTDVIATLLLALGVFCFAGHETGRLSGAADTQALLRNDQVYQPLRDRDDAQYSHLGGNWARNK
# Wherever T cell mediated tumor cell killing, OVCAR3-Luc is given: unit not given here.
# Wherever T cell mediated tumor cell killing, T47D is given: unit not given here.
EC50 (human B7-H4 on cells [1]) [nM],EC50 [3] [nM],Binder,"T cell mediated tumor cell killing EC50, HCC1954-Luc (human B7-H4 on cells [2]) [nM]","T cell mediated tumor cell killing, T47D (human B7-H4 on cells [2])","T cell mediated tumor cell killing, OVCAR3-Luc (human B7-H4 on cells [2])"
3.64,5.78,"B7-H4xCD3 bispecific antibody 1037 (bispecific antibody, IgG2, Chains 1-2: B7-H4 arm; chains 3-4: CD3 arm; IgG2) heavy 1: EVQLVESGGGLVQPGGSLRLSCAVSGGSFSGYYWNWVRQAPGKGLEWIGEINHSGSATYNPSLKSRVTISVDTAKNSLYLQMNSLRAEDTAVYYCARGLYNWNVDHWGQGTLVTVSSASTKGPSVFPLAPCSRSTSESTAALGCLVKDYFPEPVTVSWNSGALTSGVHTFPAVLQSSGLYSLSSVVTVPSSNFGTQTYTCNVDHKPSNTKVDKTVERKCEVECPECPAPPVAGPSVFLFPPKPKDTLMISRTPEVTCVVVAVSHEDPEVQFNWYVDGVEVHNAKTKPREEQFNSTFRVVSVLTVVHQDWLNGKEYKCKVSNKGLPSSIEKTISKTKGQPREPQVYTLPPSREEMTKNQVSLTCEVKGFYPSDIAVEWESNGQPENNYKTTPPMLDSDGSFFLYSKLTVDKSRWQQGNVFSCSVMHEALHNHYTQKSLSLSPG light 1: DIQMTQSPSSLSASVGDRVTITCRASQGIRNDLGWYQQKPGKAPKRLIYAASSLQSGVPSRFSGSGSGTDFTLTISSLQPEDFATYYCLQHSSYPRTFGGGTKVEIKRTVAAPSVFIFPPSDEQLKSGTASVVCLLNNFYPREAKVQWKVDNALQSGNSQESVTEQDSKDSTYSLSSTLTLSKADYEKHKVYACEVTHQGLSSPVTKSFNRGEC heavy 2: EVQLVESGGGLVQPGGSLRLSCAASGFTFSDYYMTWVRQAPGKGLEWVAFIRNQARGYTSDHNPSVKGRFTISRDNAKNSLYLQMNSLRAEDTAVYYCARDRPSYYVLDYWGQGTTVTVSSASTKGPSVFPLAPCSRSTSESTAALGCLVKDYFPEPVTVSWNSGALTSGVHTFPAVLQSSGLYSLSSVVTVPSSNFGTQTYTCNVDHKPSNTKVDKTVERKCRVRCPRCPAPPVAGPSVFLFPPKPKDTLMISRTPEVTCVVVAVSHEDPEVQFNWYVDGVEVHNAKTKPREEQFNSTFRVVSVLTVVHQDWLNGKEYKCKVSNKGLPSSIEKTISKTKGQPREPQVYTLPPSREEMTKNQVSLTCLVKGFYPSDIAVEWESNGQPENNYKTTPPMLDSDGSFFLYSRLTVDKSRWQQGNVFSCSVMHEALHNHYTQKSLSLSPGK light 2: DIQMTQSPSSLSASVGDRVTITCTSSQSLFNVRSQKNYLAWYQQKPGKAPKLLIYWASTRESGVPSRFSGSGSGTDFTLTISSLQPEDFATYYCKQSYDLFTFGGGTKVEIKRTVAAPSVFIFPPSDEQLKSGTASVVCLLNNFYPREAKVQWKVDNALQSGNSQESVTEQDSKDSTYSLSSTLTLSKADYEKHKVYACEVTHQGLSSPVTKSFNRGEC",620,1270,
3.55,5.7,"B7-H4xCD3 bispecific antibody 1136 (bispecific antibody, IgG2, Chains 1-2: B7-H4 arm; chains 3-4: CD3 arm; IgG2) heavy 1: EVQLVESGGGLVQPGGSLRLSCAASGGSFSGYYWNWIRQPPGKGLEWIGEINHSGSATYNPSLKSRVTISVDTAKNSFYLQMNSLRAEDTAVYYCARGLYNWNVDHWGQGTLVTVSSASTKGPSVFPLAPCSRSTSESTAALGCLVKDYFPEPVTVSWNSGALTSGVHTFPAVLQSSGLYSLSSVVTVPSSNFGTQTYTCNVDHKPSNTKVDKTVERKCEVECPECPAPPVAGPSVFLFPPKPKDTLMISRTPEVTCVVVAVSHEDPEVQFNWYVDGVEVHNAKTKPREEQFNSTFRVVSVLTVVHQDWLNGKEYKCKVSNKGLPSSIEKTISKTKGQPREPQVYTLPPSREEMTKNQVSLTCEVKGFYPSDIAVEWESNGQPENNYKTTPPMLDSDGSFFLYSKLTVDKSRWQQGNVFSCSVMHEALHNHYTQKSLSLSPG light 1: DIQMTQSPSSLSASVGDRVTITCRASQGIRNDLGWYQQKPGKAPKRLIYAASSLQSGVPSRFSGSGSGTDFTLTISSLQPEDFATYYCLQHNAYPRTFGGGTKVEIKRTVAAPSVFIFPPSDEQLKSGTASVVCLLNNFYPREAKVQWKVDNALQSGNSQESVTEQDSKDSTYSLSSTLTLSKADYEKHKVYACEVTHQGLSSPVTKSFNRGEC heavy 2: EVQLVESGGGLVQPGGSLRLSCAASGFTFSDYYMTWVRQAPGKGLEWVAFIRNQARGYTSDHNPSVKGRFTISRDNAKNSLYLQMNSLRAEDTAVYYCARDRPSYYVLDYWGQGTTVTVSSASTKGPSVFPLAPCSRSTSESTAALGCLVKDYFPEPVTVSWNSGALTSGVHTFPAVLQSSGLYSLSSVVTVPSSNFGTQTYTCNVDHKPSNTKVDKTVERKCRVRCPRCPAPPVAGPSVFLFPPKPKDTLMISRTPEVTCVVVAVSHEDPEVQFNWYVDGVEVHNAKTKPREEQFNSTFRVVSVLTVVHQDWLNGKEYKCKVSNKGLPSSIEKTISKTKGQPREPQVYTLPPSREEMTKNQVSLTCLVKGFYPSDIAVEWESNGQPENNYKTTPPMLDSDGSFFLYSRLTVDKSRWQQGNVFSCSVMHEALHNHYTQKSLSLSPGK light 2: DIQMTQSPSSLSASVGDRVTITCTSSQSLFNVRSQKNYLAWYQQKPGKAPKLLIYWASTRESGVPSRFSGSGSGTDFTLTISSLQPEDFATYYCKQSYDLFTFGGGTKVEIKRTVAAPSVFIFPPSDEQLKSGTASVVCLLNNFYPREAKVQWKVDNALQSGNSQESVTEQDSKDSTYSLSSTLTLSKADYEKHKVYACEVTHQGLSSPVTKSFNRGEC",500,3820,
17.6,6.9,"B7-H4xCD3 bispecific antibody 1134 (bispecific antibody, IgG2, Chains 1-2: B7-H4 arm; chains 3-4: CD3 arm; IgG2) heavy 1: EVQLVESGGGLVQPGGSLRLSCAVSGGSFSGYYWNWIRQPPGKGLEWIGEIDHQGSTKYNPSLKSRVTISVDTAKNSFYLQMNSLRAEDTAVYYCARGLYNWNVDHWGQGTLVTVSSASTKGPSVFPLAPCSRSTSESTAALGCLVKDYFPEPVTVSWNSGALTSGVHTFPAVLQSSGLYSLSSVVTVPSSNFGTQTYTCNVDHKPSNTKVDKTVERKCEVECPECPAPPVAGPSVFLFPPKPKDTLMISRTPEVTCVVVAVSHEDPEVQFNWYVDGVEVHNAKTKPREEQFNSTFRVVSVLTVVHQDWLNGKEYKCKVSNKGLPSSIEKTISKTKGQPREPQVYTLPPSREEMTKNQVSLTCEVKGFYPSDIAVEWESNGQPENNYKTTPPMLDSDGSFFLYSKLTVDKSRWQQGNVFSCSVMHEALHNHYTQKSLSLSPG light 1: DIQMTQSPSSLSASVGDRVTITCRASQGIRNDLGWYQQKPGKAPKRLIYAASSLQSGVPSRFSGSGSGTDFTLTISSLQPEDFATYYCLQHNAYPRTFGGGTKVEIKRTVAAPSVFIFPPSDEQLKSGTASVVCLLNNFYPREAKVQWKVDNALQSGNSQESVTEQDSKDSTYSLSSTLTLSKADYEKHKVYACEVTHQGLSSPVTKSFNRGEC heavy 2: EVQLVESGGGLVQPGGSLRLSCAASGFTFSDYYMTWVRQAPGKGLEWVAFIRNQARGYTSDHNPSVKGRFTISRDNAKNSLYLQMNSLRAEDTAVYYCARDRPSYYVLDYWGQGTTVTVSSASTKGPSVFPLAPCSRSTSESTAALGCLVKDYFPEPVTVSWNSGALTSGVHTFPAVLQSSGLYSLSSVVTVPSSNFGTQTYTCNVDHKPSNTKVDKTVERKCRVRCPRCPAPPVAGPSVFLFPPKPKDTLMISRTPEVTCVVVAVSHEDPEVQFNWYVDGVEVHNAKTKPREEQFNSTFRVVSVLTVVHQDWLNGKEYKCKVSNKGLPSSIEKTISKTKGQPREPQVYTLPPSREEMTKNQVSLTCLVKGFYPSDIAVEWESNGQPENNYKTTPPMLDSDGSFFLYSRLTVDKSRWQQGNVFSCSVMHEALHNHYTQKSLSLSPGK light 2: DIQMTQSPSSLSASVGDRVTITCTSSQSLFNVRSQKNYLAWYQQKPGKAPKLLIYWASTRESGVPSRFSGSGSGTDFTLTISSLQPEDFATYYCKQSYDLFTFGGGTKVEIKRTVAAPSVFIFPPSDEQLKSGTASVVCLLNNFYPREAKVQWKVDNALQSGNSQESVTEQDSKDSTYSLSSTLTLSKADYEKHKVYACEVTHQGLSSPVTKSFNRGEC",1560,7330,540
